The source of these data is patent US20190338038A1 (CELLERANT THERAPEUTICS, published 2019).

Experiment [1] addresses human interleukin 1 receptor accessory protein, membrane-bound form on cells (human) (UniProt Q9NPH3). The experiment can be described thus: flow cytometry on primary AML sample 13-AML-02 PB, antibody at 2 ug/mL per paragraph 390.
Experiment [2] addresses T1, IL1-RAP (antigen of the kinetic measurements of Tables 5A and 5B) (human, UniProt Q9NPH3 21-359, limits assumed).
T1 sequence: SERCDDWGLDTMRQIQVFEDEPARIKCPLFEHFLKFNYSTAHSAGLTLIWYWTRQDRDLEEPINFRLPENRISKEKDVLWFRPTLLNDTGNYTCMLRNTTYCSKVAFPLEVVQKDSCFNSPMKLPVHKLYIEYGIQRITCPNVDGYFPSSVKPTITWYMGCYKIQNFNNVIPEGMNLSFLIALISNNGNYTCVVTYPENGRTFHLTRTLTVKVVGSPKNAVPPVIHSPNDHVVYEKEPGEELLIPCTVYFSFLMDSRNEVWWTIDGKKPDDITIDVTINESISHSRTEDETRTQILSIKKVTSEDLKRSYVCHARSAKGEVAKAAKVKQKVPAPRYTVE
The experiment can be described thus: kinetics, Table 5A; method and antigen form not stated.

Experiment [3] addresses T2, human interleukin 1 receptor accessory protein, membrane-bound form on cells (human, UniProt Q9NPH3 21-570).
T2 construct: On IL1-RAP-transfected 293 cells, AML cell lines (EOL-1, HNT-34, OCI-AML2, OCI-AML3), primary AML cells and HEK-Blue IL-1β cells; also called IL1-RAP; receptor IL1-RAP
T2 sequence: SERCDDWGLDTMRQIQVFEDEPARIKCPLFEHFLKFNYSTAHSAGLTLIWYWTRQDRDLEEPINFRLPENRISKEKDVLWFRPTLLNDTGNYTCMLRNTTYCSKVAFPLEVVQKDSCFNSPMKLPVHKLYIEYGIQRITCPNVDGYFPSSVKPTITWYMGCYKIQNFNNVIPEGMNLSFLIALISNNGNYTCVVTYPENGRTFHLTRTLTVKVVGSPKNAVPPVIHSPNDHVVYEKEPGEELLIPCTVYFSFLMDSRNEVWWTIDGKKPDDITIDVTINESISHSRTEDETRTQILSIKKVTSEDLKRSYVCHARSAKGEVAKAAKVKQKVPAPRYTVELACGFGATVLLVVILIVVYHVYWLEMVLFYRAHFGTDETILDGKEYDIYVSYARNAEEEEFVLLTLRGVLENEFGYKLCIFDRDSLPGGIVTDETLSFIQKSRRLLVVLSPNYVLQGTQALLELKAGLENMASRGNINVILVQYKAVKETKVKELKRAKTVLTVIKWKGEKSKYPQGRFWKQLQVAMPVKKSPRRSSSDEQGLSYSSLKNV
The experiment can be described thus: FACS on EOL-1 cells, FITC; antibody concentration not given.

The target in experiment [4] is T1, IL1-RAP (antigen of the kinetic …). The experiment can be described thus: kinetics, Table 5B; method and antigen form not stated.
Experiment [5] has as its target T2, human interleukin 1 receptor accessory …. The experiment can be described thus: FACS titration on IL1-RAP transfected 293 cells.
Experiment [6] shares this target. The experiment can be described thus: FACS titration on HNT-34 cells.
For experiment [7] the target is unchanged. The experiment can be described thus: FACS titration on EOL-1 cells.
Experiment [8] deals with T3, recombinant mouse IL1-RAP (mouse, UniProt Q61730 21-359, limits assumed).
T3 sequence (looked up): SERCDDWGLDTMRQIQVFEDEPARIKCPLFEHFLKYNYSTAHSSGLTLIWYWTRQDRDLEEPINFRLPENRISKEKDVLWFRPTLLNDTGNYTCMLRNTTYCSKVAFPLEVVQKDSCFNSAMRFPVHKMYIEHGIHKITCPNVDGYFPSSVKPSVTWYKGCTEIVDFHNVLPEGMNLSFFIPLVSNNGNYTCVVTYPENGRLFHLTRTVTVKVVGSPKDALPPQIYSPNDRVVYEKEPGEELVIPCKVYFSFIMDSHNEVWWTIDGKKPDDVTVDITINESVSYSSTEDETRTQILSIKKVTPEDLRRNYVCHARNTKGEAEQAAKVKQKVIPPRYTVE
The experiment can be described thus: FACS (GeoMean), bar series mIL1RAP.

Experiment [9] concerns the target T2, human interleukin 1 receptor accessory …. The experiment can be described thus: FACS titration on HNT-34 cells in PBS, no competitor.
The target is the same in experiment [10]. The experiment can be described thus: cell-based or functional assay.
The target is the same in experiment [11]. The experiment can be described thus: cell-based or functional assay. This is another data set of the same source.

Read-outs that look alike come from different tables or passages of the source.

mIgG (antibody) returned a % of cells in the upper right quadrant (CD34 APC high, stain positive) in [1] of 1.57%.

B1: humanized clone of 54.9D7 hH2L3 (antibody, V domains shown)
VH: QVQLVQSGAEVKKPGASVKVSCKASGYIFITYWMNWVRQAPGQGLEWVGQIFPASGTTYYAQKFQGRVTMTVDTSTSTVYMELSSLRSEDTAVYYCARTDFYRYDGGYALDYWGQGTLVTVSS
VL: DIQLTQSPSSLSASVGDRATITCRASQSVSTSGYSSMHWYQQKPGKAPKLLIKYASDLESGVPSRFSGSGSGTDFTLTISSVQPEDFATYYCHHSWGIPMYTFGQGTKLEIKR
notes: Humanized; also called 54.9D7 H2L3
B1: in [2], the equilibrium dissociation constant (Kd) is < 0.001 nM, the koff was < 1e-07 s⁻¹ and the kon came out at 141000 M⁻¹ s⁻¹. The MFI in experiment [3] was 124. Also, in experiment [4], the dissociation constant (Kd) is < 0.001 nM, the dissociation rate constant (koff) is < 1e-07 s⁻¹ and the on-rate constant (kon) was 169000 M⁻¹ s⁻¹.

B2: humanized clone of 54.9D7 hH1L3 (antibody, V domains shown)
VH: QVQLVQSGAEVKKPGASVKVSCKASGYIFITYWMNWVRQAPGQGLEWMGQIFPASGTTYYAQKFQGRVTMTRDTSTSTVYMELSSLRSEDTAVYYCARTDFYRYDGGYALDYWGQGTLVTVSS
VL: DIQLTQSPSSLSASVGDRATITCRASQSVSTSGYSSMHWYQQKPGKAPKLLIKYASDLESGVPSRFSGSGSGTDFTLTISSVQPEDFATYYCHHSWGIPMYTFGQGTKLEIKR
notes: Humanized; also called 54.9D7 H1L3
With B2, in experiment [2], the affinity, expressed as Kd, was 0.556 nM; the koff is 7.57e-05 s⁻¹; the kon turned out to be 136000 M⁻¹ s⁻¹. The MFI in [3] turned out to be 100. In addition, in experiment [4], the Kd stood at 0.229 nM, the koff worked out at 3.75e-05 s⁻¹ and the kon is 164000 M⁻¹ s⁻¹.

B3: humanized clone of 54.9D7 hH3L3 (antibody, V domains shown)
VH: QVQLVQSGAEVKKPGASVKLSCKASGYIFITYWMNWVRQAPGQGLEWVGQIFPASGTTYYAQKFQGRATLTVDTSTSTAYMELSSLRSEDTAVYYCARTDFYRYDGGYALDYWGQGTLLTVSS
VL: DIQLTQSPSSLSASVGDRATITCRASQSVSTSGYSSMHWYQQKPGKAPKLLIKYASDLESGVPSRFSGSGSGTDFTLTISSVQPEDFATYYCHHSWGIPMYTFGQGTKLEIKR
notes: Humanized; also called 54.9D7 H3L3
In the case of B3, in [2], the Kd was < 0.001 nM, the koff is < 1e-07 s⁻¹ and the on-rate (kon) stood at 177000 M⁻¹ s⁻¹. This molecule also gave an MFI in [3] of 94.3. In experiment [4], the Kd was < 0.001 nM, the dissociation rate constant (koff) is < 1e-07 s⁻¹ and the on-rate (kon) turned out to be 193000 M⁻¹ s⁻¹.

B4: anti-IL1-RAP antibody clone 56.12G6 (antibody, V domains shown)
VH: RSNYSSLGAELVKPGASVTLSCEASGYTFTSYWIHWVKQRPGQGLEWIGEINPSHGHTTYNEKFKNKATLTVDKSSSTAYMQVSSLTSEDSAVYYCTRHYGSYYFDLWGQGTTLTVSS
VL: QIVLTQSPAIMSAFPGEKVTMTCRASSSVSYMHWYRQKSGTFPKRWIYDTSKLASGVPARFSGSGSGTSYSLTISSMEAEDAATYYCQQWSTNPITFGAGTKLELK
notes: Mouse monoclonal antibody
As to B4, the “EC50 (read off the curve)” value in experiment [5] is ~0.4 µg/mL; in [6], ~0.2 µg/mL; in [7], ~0.6 µg/mL; in experiment [9], ~0.9 µg/mL. In [8], the binding result is “no binding (tested: not given)”.

B5: anti-IL1-RAP antibody clone 54.9D7 (antibody, V domains shown)
VH: HVQLQQSGPELVRPGASVKLSCKASGYIFITYWMNWVKQRPGQGLEWVGQIFPASGTTYYNELFEGKATLTVDTSSNTAYMHLTSLTSEDSAVYYCARTDFYRYDGGYALDYWGQGTSLTVSS
VL: DIVLTQSPISLAVFLGQRATISCRASQSVSTSGYSSMHWYQQKAGQPPKLLIKYASDLESGVPVRFSGSGSGTDFILNIHPVEVEDIATYYCHHSWGIPMYTFGGGTKLEIKR
notes: Mouse monoclonal antibody from a hybridoma
In the case of B5, the “IC50 of inhibition of IL-1β-induced NF-κB signaling, HEK-Blue IL-1β cells” value turned out to be 0.0323 µg/mL in experiment [10] and 0.03 µg/mL in [11]. In addition, in experiment [11], the “% Inhibition at 10 ug/mL of IL-1β-induced NF-κB signaling, HEK-Blue IL-1β cells” value was 92.3%. Besides, the binding result in [8] was “no binding (tested: not given)”.

B6: Chi54.9D7 HC#1 / h54.9D7 LC3 (antibody, V domains shown)
VH: HVQLQQSGPELVRPGASVKLSCKASGYIFITYWMNWVKQRPGQGLEWVGQIFPASGTTYYNELFEGKATLTVDTSSNTAYMHLTSLTSEDSAVYYCARTDFYRYDGGYALDYWGQGTSLTVSS
VL: DIQLTQSPSSLSASVGDRATITCRASQSVSTSGYSSMHWYQQKPGKAPKLLIKYASDLESGVPSRFSGSGSGTDFTLTISSVQPEDFATYYCHHSWGIPMYTFGQGTKLEIKR
notes: also called chimeric 54.9D7 heavy chain with humanized LC3
For the molecule B6, the MFI in experiment [3] was 121.

B7: h54.9D7 HC3 / Chi54.9D7 LC#1 (antibody, V domains shown)
VH: QVQLVQSGAEVKKPGASVKLSCKASGYIFITYWMNWVRQAPGQGLEWVGQIFPASGTTYYAQKFQGRATLTVDTSTSTAYMELSSLRSEDTAVYYCARTDFYRYDGGYALDYWGQGTLLTVSS
VL: DIVLTQSPISLAVFLGQRATISCRASQSVSTSGYSSMHWYQQKAGQPPKLLIKYASDLESGVPVRFSGSGSGTDFILNIHPVEVEDIATYYCHHSWGIPMYTFGGGTKLEIKR
notes: also called humanized 54.9D7 HC3 with the chimeric light chain
With B7, the MFI in experiment [3] was determined as 20.
